Results as given in US20220348686A1 (Memorial Sloan Kettering, published 2022).

B1: BC259 (VH-1+VL-1 BsAb variant) (bispecific antibody, V domains shown)
VH: QVQVQESGPGLVKPSQTLSLTCTVTGYSITSDYAWNWIRQPPGKGLEWMGYISNSGSTSYNPSLKSRITISRDTSKNQFSLKLSSVTAADTAVYYCARERNYDYDDYYYAMDYWGQGTTLTVSA
VL: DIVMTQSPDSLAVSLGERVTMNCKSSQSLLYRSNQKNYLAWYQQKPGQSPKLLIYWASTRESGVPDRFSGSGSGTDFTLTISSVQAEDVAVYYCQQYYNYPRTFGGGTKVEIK
notes: One of the 24 humanized X120 versions; light chain extended by (G4S)3 linker and huOKT3 anti-CD3 scFv); also called L1+H1
B2: BC260 (VH-2+VL-1 BsAb variant) (bispecific antibody, V domains shown)
VH: DVQVQESGPGLVKPSQTLSLTCTVTGYSITSDYAWNWIRQPPGKGLEWMGYISNSGSTSYNPSLKSRITISRDTSKNQFSLKLSSVTAADTAVYYCARERNYDYDDYYYAMDYWGQGTTLTVSA
VL: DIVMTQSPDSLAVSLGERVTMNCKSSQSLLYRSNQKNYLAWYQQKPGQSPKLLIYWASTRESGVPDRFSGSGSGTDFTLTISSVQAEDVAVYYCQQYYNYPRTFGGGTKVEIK
notes: One of the 24 humanized X120 versions; light chain extended by (G4S)3 linker and huOKT3 anti-CD3 scFv); also called L1+H2
B3: humanized X120 clone L2+H1 (bispecific antibody, IgG1, V domains shown)
VH: QVQVQESGPGLVKPSQTLSLTCTVTGYSITSDYAWNWIRQPPGKGLEWMGYISNSGSTSYNPSLKSRITISRDTSKNQFSLKLSSVTAADTAVYYCARERNYDYDDYYYAMDYWGQGTTLTVSA
VL: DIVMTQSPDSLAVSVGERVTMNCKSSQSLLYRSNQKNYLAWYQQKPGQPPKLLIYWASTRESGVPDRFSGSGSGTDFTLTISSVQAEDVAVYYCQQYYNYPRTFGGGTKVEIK
notes: One of the 24 humanized X120 versions; light chain with (G4S)3 linker and huOKT3 scFv)
B4: humanized X120 clone L4+H1 (bispecific antibody, IgG1, V domains shown)
VH: QVQVQESGPGLVKPSQTLSLTCTVTGYSITSDYAWNWIRQPPGKGLEWMGYISNSGSTSYNPSLKSRITISRDTSKNQFSLKLSSVTAADTAVYYCARERNYDYDDYYYAMDYWGQGTTLTVSA
VL: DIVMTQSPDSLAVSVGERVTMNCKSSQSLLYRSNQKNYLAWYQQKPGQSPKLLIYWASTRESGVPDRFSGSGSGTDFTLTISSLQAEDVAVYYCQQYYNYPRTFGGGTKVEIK
notes: as for B3
B5: humanized X120 clone L4+H2 (bispecific antibody, IgG1, V domains shown)
VH: DVQVQESGPGLVKPSQTLSLTCTVTGYSITSDYAWNWIRQPPGKGLEWMGYISNSGSTSYNPSLKSRITISRDTSKNQFSLKLSSVTAADTAVYYCARERNYDYDDYYYAMDYWGQGTTLTVSA
VL: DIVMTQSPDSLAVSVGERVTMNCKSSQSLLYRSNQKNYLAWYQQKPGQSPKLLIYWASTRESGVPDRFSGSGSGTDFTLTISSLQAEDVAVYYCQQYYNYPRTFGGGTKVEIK
notes: as for B3

Key:
Human STEAP1 [1] = molecular target: T1, Human STEAP1 (human, UniProt Q9UHE8 1-339); test: flow cytometry on TC32 cells after repeated washes in PBS with 2 mM EDTA
T1 construct: Endogenous on Ewing's sarcoma cell lines (TC32 and others) and prostate cancer cell lines; as STP1h transfected into HEK293 cells with a lentiviral vector (GFP part of the transgene); also called STP1h
T1 sequence (Q9UHE8 whole entry): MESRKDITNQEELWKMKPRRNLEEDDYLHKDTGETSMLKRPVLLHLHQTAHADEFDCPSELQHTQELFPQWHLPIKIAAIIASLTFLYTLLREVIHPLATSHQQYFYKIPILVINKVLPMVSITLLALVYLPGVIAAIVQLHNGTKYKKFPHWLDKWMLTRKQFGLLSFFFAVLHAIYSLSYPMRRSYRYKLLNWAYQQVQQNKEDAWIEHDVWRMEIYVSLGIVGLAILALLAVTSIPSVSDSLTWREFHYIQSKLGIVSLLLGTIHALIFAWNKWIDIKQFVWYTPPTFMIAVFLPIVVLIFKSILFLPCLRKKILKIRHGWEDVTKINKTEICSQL
Description: Following binding of the primary antibody, cells were washed in PBS with 2 mM EDTA from 1 to 10 times. After each wash cells were stained with the secondary PE-conjugated goat anti-human IgG antibody and washed once with PBS for flow cytometry. Mean fluorescence intensity (MFI) was normalized to time 1 and depicted in FIG. 4B. While chimeric antibody dropped to below 50% after first wash, clones L1+H1, L1+H2, L1+H5 and L2+H2 remained above 50% through wash #8 and therefore scored as slow koff.
After initial staining (FIG. 4A), ten different clones, including the chimeric BsAb clone, were chosen for further study. To assess binding of these ten clones to TC32 cells, following incubation of the BsAbs, the cells were subjected to ten washes with PBS. An aliquot of the binding reaction after each wash was stained with a fluorochrome labelled anti-human secondary antibody. The extent of binding of the anti-STEAP1 BsAbs to TC32 cells was measured using flow cytometry.

Human STEAP1 [2] = molecular target: T1, Human STEAP1; test: flow cytometry staining of TC32 cells with different doses

Binder | Mean fluorescence intensity (MFI) normalized to time 1, through wash #8 (Human STEAP1 [1]) | binding result (Human STEAP1 [2])
B1 | > 50% | –
B2 | > 50% | –
B3 | – | binds
B4 | – | binds
B5 | – | binds
